# From paper PMC12472674 (Nanomaterials, 2025)
# Legend:
# [1] = Octanol–water partition coefficient (logP), shake-flask method; assay type: physicochemical; conditions: mutually saturated n-octanol/distilled water, 10 mg freeze-dried complex in 10 mL of each phase, stirred 400 rpm 24 h, 25 °C, HPLC-UV 230 nm, SMG 5.36 mg/mL, in the presence of Zn 0.5 mg/mL (Figure 2a), mean, n = 3
# Procedure: The prepared SMG–PS–Zn complex suspensions were stored at −80 °C for 24 h, then freeze-dried using a lyophilizer (TFD 8501, Ilshinbiobase Co. Ltd., Dongducheon-si, Republic of Korea) at −80 °C and under a vacuum of <10 mTorr for 24 h to obtain dried samples. Then, the octanol–water partition coefficient (logP) was determined using the classical shake-flask method. Equal volumes of n-octanol and distilled water were mutually saturated by vigorous mixing and phase separation. Ten milligrams of freeze-dried complexes were placed in a 20 mL scintillation vial, followed by the addition of 10 mL each of the pre-saturated octanol and water phases. The vial was sealed and stirred at 400 rpm for 24 h to reach equilibrium. After incubation, the mixture was centrifuged at 13,000 rpm to separate the phases. The octanol phase was diluted 10-fold with methanol, and the aqueous phase was diluted 10-fold with the mobile phase. Drug concentrations in both phases were quantified using high-performance liquid chromatography (HPLC) analysis, and logP was calculated as the logarithm of the ratio of drug concentration in octanol to that in water.
# The concentration of SMG in the complex suspension was quantified by reversed phase-HPLC, with minor modifications to previously reported methods. […] The limits of detection and quantification were 0.523 μg/mL and 1.569 μg/mL, respectively.
# [2] = healthy subjects, SC injection; cited from earlier work
# Source text: SMG is a 31-amino acid peptide with a molecular weight of 4113.58 Da, structurally derived from native GLP-1 by substitutions at positions 8 (alanine to α-aminoisobutyric acid) and 34 (lysine to arginine), and acylation of the lysine residue at position 26 with a C18 fatty diacid chain. These modifications enhance albu ...
# [3] = Solubility of SMG in release medium; assay type: physicochemical
substance,measurement,setting,value
Semaglutide [SMG],logP (octanol/distilled water),[1],approximately −4.7
same,Elimination half-life,[2],approximately 7 days
same,Solubility in PBS (pH 7.4) release medium,[3],26.8 mg/mL
